In the data set the target is T1, FlhF-His6 (Campylobacter jejuni 81-176?) (UniProt O52908).
T1 sequence: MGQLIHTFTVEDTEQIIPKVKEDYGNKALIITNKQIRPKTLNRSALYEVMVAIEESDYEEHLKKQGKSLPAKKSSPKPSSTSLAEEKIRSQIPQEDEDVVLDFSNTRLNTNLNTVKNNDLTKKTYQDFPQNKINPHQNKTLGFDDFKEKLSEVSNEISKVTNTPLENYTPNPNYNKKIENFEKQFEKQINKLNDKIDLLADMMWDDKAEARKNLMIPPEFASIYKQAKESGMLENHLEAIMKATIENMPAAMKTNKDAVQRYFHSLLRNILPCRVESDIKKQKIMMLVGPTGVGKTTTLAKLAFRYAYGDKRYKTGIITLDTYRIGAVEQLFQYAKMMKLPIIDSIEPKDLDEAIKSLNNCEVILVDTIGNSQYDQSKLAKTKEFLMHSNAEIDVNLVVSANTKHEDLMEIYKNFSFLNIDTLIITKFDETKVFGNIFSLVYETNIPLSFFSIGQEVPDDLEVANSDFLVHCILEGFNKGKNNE
Put plainly: EMSA. In general terms: A gel shift assay detects complexes by their altered migration in electrophoresis.

Turning to “TCATTTATCATTCCTCTAATAAAATCTTAAAATCATTCAAATCAAGTAAAAGCAAATTCTGTTCGCATATTTTATCAAATTCCTTGCTAAAACCATTTTTTGAGATTATAATGTAATAATTTGGAGCCAAATTTAAAGACTTTGCTTTTGATTTTAAAAGATTTAAAATATTTTTACAAATTTTTTTATTTTATCGTCGACCTGCAGGCA (double strand) [flgS promoter]”, the binding result is “binds”.
Under “TGCCTGCAGGTCGACGATCAACCATAAAAACTCCCGAAAAAATCCAAAATTTTCAAAAAGTCAAAGAAAAGAAATTTGGATCAACTAGCTTAAGCTTTTACGCTTCTTAACTTACTTGGAACACTTCTTGCTTGATCTATCATCAACAATAGATTAAAGGAAGAATCCA (double strand) [PflgI fragment 2]” stands “binds”; under “TGCCTGCAGGTCGACGATTGCAGATGCAAACATTAAAAATCCTTTAAATTTAGAATTCTTAGGTCATTTAAGCGCTTCTAAAGATGTAAGTGGTAGTATTAAAAAAAGAACTTTATTTAGCGATGAAAACACAGCCTCAAGTGATGAGATTAAAGCCCTAGCTTCCAAGCTTTTATATAGATTGGAACGGAAAGTGCTTGATA (double strand) [fliA promoter]”, “binds”.
Under “CTTTTAAATCCTTTCAAAATATTGCATCGAAAAGATTAAAGCAAGAAGTGTTCCAAGTTTTAATTTGATTAAAAATTTTAAAGCTTATAAATAAAAAGCCTAGTATTTAAACTAGGCTTGGATTTGTATAAATTGCAGCATTCTTAAAAGAATGTAAAGTGATTTTAAGATTTAACTATTGTAATCGTCGACCTGCAGGCA (double strand) [flaB promoter]” stands “no binding”; under “TTTAAATCCTTTTAAATAATTTCAAACTCATCCATGAGCTTGTTAAATGCTATATCGTTACTTTTTTTAAAAATTTATACCTTAAACTAAAAAATTATAAATATCGCATTTTAATTGGAATCTGCAAATAAAAATTTCAAGCCACTGTTTATAAAATGTCAAGTATATTAATAAATACTCTCTTTCATCTTCAATTATCGTCGACCTGCAGGCA (double strand) [flaA promoter]”, “no binding”; under “TGCCTGCAGGTCGACGATACCAGTTTCACCACTCGGGCTCATTTTTAAGATTTAAAGCTAAAATTATACTTTTTTAGGCTAAAAAATAACTTTAAAAATAAAAAGTATTTTCAAAAAGACGATATAAAATTATATAATTTAAATTTTTGGAACAGTTATTGCTTTTGTTTATTAGCAATATTTGAAAAGATTTTAACTTTAATACTTTAGAGGAAA (double strand) [flgL promoter]”, “no binding”.
Under “TGGATTCTTCCTTTAATCTATTGTTGATGATAGATCAAGCAAGAAGTGTTCCAAGTAAGTTAAGAAGCGTAAAAGCTTAAGCTAGTTGATCCAAATTTCTTTTCTTTGACTTTTTGAAAATTTTGGATCGTCGACCTGCAGGCA (double strand) [PflgI fragment 3]” stands “binds”; under “TTCTTTGACTTTTTGAAAATTTTGGATTTTTTCGGGAGTTTTTATGGTTGAGTGGTGTTCAAAAATGATTAAATTTAAAGTCTTTAAATCTAAATTTTCTATCGTCGACCTGCAGGCA (double strand) [PflgI fragment 6]”, “no binding”.
With “ATAACGCCATTAATCCCCACTACACCACTTTTACACATATCTTCAGAAATAGCTCTTCTTTTCGTGATATTAACTACATTTAAAAATTTATCTACTCTCATAAAAGCAATTTTAGCAAAAAAAATCAATTTTTGGAACAAAATTTGCTTATGCCTTTGCTTTATTTTTTAAGAAAATAGCAAGTAAAAACTTTTCTTTAATGAAATTTGGATACAATTTTACAATTTTCAAATCTATTTTAACAAAGGATATCGTCGACCTGCAGGCA (double strand) [rpoN promoter]”, the binding entry is listed as “no binding”.
Then “TGCCTGCAGGTCGACGATGCTTTTACGCTTCTTAACTTACTTGGAACACTTCTTGCTTGATCTATCATCAACAATAGATTAAAGGAAGAATCCA (double strand) [PflgI fragment 5]”, with “no binding”; and “TGCCTGCAGGTCGACGATAGAAAATTTAGATTTAAAGACTTTAAATTTAATCATTTTTGAACACCACTCAACCATAAAAACTCCCGAAAAAATCCAAAATTTTCAAAAAGTCAAAGAAAAGAAATTTGGATCAACTAGCTTAAGCTTTTACGCTTCTTAACTTACTTGGAACACTTCTTGCTTGATCTATCATCAACAATAGATTAAAGGAAGAATCCA (double strand) [flgI promoter (PflgI, 201 bp)]”, with “binds”.
On to “TGCCTGCAGGTCGACGATAAGAAATTTGGATCAACTAGCTTAAGCTTTTACGCTTCTTAACTTACTTGGAACACTTCTTGCTTGATCTATCATCAACAATAGATTAAAGGAAGAATCCA (double strand) [PflgI fragment 4]”, for which the binding entry was “binds”.
Under “AAGCTCTATCAAAAGAAGTTTTAAAAACGCATCCTTATCTAAGGTAGCGTTTGGATTGCTCACTATTCCTGAGCTACTGCTTGAATCTGTTCTAGTTGTCCCACTAGTACTTCCTGAAGAAGTAGTACCTGAAGTTGTAGCAGTGGTATTTAAATTCCAATCCGATGATGATATCATTATAAACTCCTTTTTATTTAGTTTTTTATTATTTAAGCAATAAGTGTTCCAATTATCGTCGACCTGCAGGCA (double strand) [fliK promoter]” stands “no binding”; under “AATTCATCCTAAGCCTTTTAAAAAATTTCTGCTATGGTATCCAATTTGCGCTTAATTTTGAATTTACTTTTTTTTAAGTATAATAAATTATCGCATTTTGTTCGCCAAATTCCACGGTAAAACGCAAGGGTAAAATTTTGACATAAGTTTCGCTTTGGGCATGTAATAAGTCAGTATTAACAATATCCTTAACACTGATTCTAGCTCCATCGTCGACCTGCAGGCA (double strand) [flgR promoter]”, “no binding”.
Under “TGCCTGCAGGTCGACGATAATTTAATCATTTTTGAACACCACTCAACCATAAAAACTCCCGAAAAAATCCAAAATTTTCAAAAAGTCAAAGAAAAGAAATTTGGATCAACTAGCTTAAGCTTTTACGCTTCTTAACTTACTTGGAACACTTCTTGCTTGATCTATCATCAACAATAGATTAAAGGAAGAATCCA (double strand) [PflgI fragment 1]” stands “binds”; under “TGCCTGCAGGTCGACGATGGGTGTGATTTTGGTAATTTTCATTACACAAAAGACCAAAGCTTCATAAACTCCCAAAATACCTTTAAATTTTTTCTATAAATTTTTAAAAAATTTCAAAAGTTGGAACAGAACTTGCTTGTAAACTTCACATAAACGCAAAAGTTTTTTAAAGCCAAAGCGTTAAATTTTTTAAAGCAATATTTTATAAAGGATTTAAGA (double strand) [flgE promoter]”, “no binding”.
Regarding “TGCCTGCAGGTCGACGATAAATATCGACCTAAAGCGTAAATTTTATACCTTAAAAAGAAAAAATTATAATTTTAACAGAGCTTTAGAAAAATTTGAAAAAATATTCAAATCATAAACATAATAACCGATTTATATAGAAAGTTAAGCAATTTTTAGATAAAATCCAAAGCTTATATAAATTTCAAGGATAATCAA (double strand) [rpoD promoter]”, the binding entry was “binds”.

Source of the values: PMC7105676.
